Patent US20170096652

Target: transcription factor DdrO (Gene ID: 1798752; NP_296294.1) of Deinococcus radiodurans

B1: PprI protease (gene pprI, dr_0167; GeneID: 1798483; NCBI-GI: 15805204) of Deinococcus radiodurans (protein)
chain: MPSANVSPPCPSGVRGGGMGPKAKAEASKPHPQIPVKLPFVTAPDALAAAKARMRDLAAAYVAALPGRDTHSLMAGVPGVDLKFMPLGWRDGAFDPEHNVILINSAARPERQRFTLAHEIGHAILLGDDDLLSDIHDAYEGERLEQVIETLCNVAAAAILMPEPVIAEMLERFGPTGRALAELAKRAEVSASSALYALTEQTPVPVIYAVCAPGKPPREQAASDEDAGPSTEKVLTVRASSSTRGVKYTLASGTPVPADHPAALALATGMEVREESYVPFRSGRKMKAEVDAYPSRGIVAVSFEFDPARLGRKDSEQADRDEPQDAAQ
PprI cleavage activity detected by Western blotting: PprI cleaves DdrO into two fragments | protease activity in vitro, SDS-PAGE (40 minutes, 2.0 mM MnCl2): DdrO was cleaved by PprI into two fragments | protease activity in vitro, SDS-PAGE (40 minutes, 3.0 mM MnCl2): DdrO was cleaved by PprI into two fragments | protease activity in vitro, SDS-PAGE (40 minutes, 5.0 mM MnCl2): DdrO was cleaved by PprI into two fragments
